Legend:
[1] = molecular target: β2AR-Renilla Reniformus luciferase II fusion (UniProt P07550 1-413); assay: cell-based or functional assay
FLAG-β2AR = FLAG-β2AR (UniProt P07550 1-413, limits assumed); assay: cell-based or functional assay

| Binder | EC50 of β-arrestin2 recruitment to the β2AR (BRET) [1] [µM] | cAMP production in HEK293 cells stably overexpressing FLAG-β2AR (FLAG-β2AR) |
| --- | --- | --- |
| TAIAKFERLQTVTNYF (HELM PEPTIDE1{[CCCCCCCCCCCCCCCC(=O)[*:2]].T.A.I.A.K.F.E.R.L.Q.T.V.T.N.Y.F.[am]}$$$$V2.0; SMILES CCCCCCCCCCCCCCCC(=O)N[C@H](C(=O)N[C@@H](C)C(=O)N[C@H](C(=O)N[C@@H](C)C(=O)N[C@@H](CCCCN)C(=O)N[C@@H](Cc1ccccc1)C(=O)N[C@@H](CCC(=O)O)C(=O)N[C@@H](CCCNC(=N)N)C(=O)N[C@@H](CC(C)C)C(=O)N[C@@H](CCC(N)=O)C(=O)N[C@H](C(=O)N[C@H](C(=O)N[C@H](C(=O)N[C@@H](CC(N)=O)C(=O)N[C@@H](Cc1ccc(O)cc1)C(=O)N[C@@H](Cc1ccccc1)C(N)=O)[C@@H](C)O)C(C)C)[C@@H](C)O)[C@@H](C)CC)[C@@H](C)O) [ICL1-11] | 1.7 | ~2 fold increase over vehicle |
| VITAIAKFERLQTVTN (HELM PEPTIDE1{[CCCCCCCCCCCCCCCC(=O)[*:2]].V.I.T.A.I.A.K.F.E.R.L.Q.T.V.T.N.[am]}$$$$V2.0; SMILES CCCCCCCCCCCCCCCC(=O)N[C@H](C(=O)N[C@H](C(=O)N[C@H](C(=O)N[C@@H](C)C(=O)N[C@H](C(=O)N[C@@H](C)C(=O)N[C@@H](CCCCN)C(=O)N[C@@H](Cc1ccccc1)C(=O)N[C@@H](CCC(=O)O)C(=O)N[C@@H](CCCNC(=N)N)C(=O)N[C@@H](CC(C)C)C(=O)N[C@@H](CCC(N)=O)C(=O)N[C@H](C(=O)N[C@H](C(=O)N[C@H](C(=O)N[C@@H](CC(N)=O)C(N)=O)[C@@H](C)O)C(C)C)[C@@H](C)O)[C@@H](C)CC)[C@@H](C)O)[C@@H](C)CC)C(C)C) [ICL1-4] | 1.9 |  |
| LVITAIAKFERLQTVT (HELM PEPTIDE1{[CCCCCCCCCCCCCCCC(=O)[*:2]].L.V.I.T.A.I.A.K.F.E.R.L.Q.T.V.T.[am]}$$$$V2.0; SMILES CCCCCCCCCCCCCCCC(=O)N[C@@H](CC(C)C)C(=O)N[C@H](C(=O)N[C@H](C(=O)N[C@H](C(=O)N[C@@H](C)C(=O)N[C@H](C(=O)N[C@@H](C)C(=O)N[C@@H](CCCCN)C(=O)N[C@@H](Cc1ccccc1)C(=O)N[C@@H](CCC(=O)O)C(=O)N[C@@H](CCCNC(=N)N)C(=O)N[C@@H](CC(C)C)C(=O)N[C@@H](CCC(N)=O)C(=O)N[C@H](C(=O)N[C@H](C(=O)N[C@H](C(N)=O)[C@@H](C)O)C(C)C)[C@@H](C)O)[C@@H](C)CC)[C@@H](C)O)[C@@H](C)CC)C(C)C) [ICL1-20] | 1.1 |  |
